{"source": "paper PMC8064603", "target": "bovine RNase B, biotinylated (bovine) (UniProt P61823)", "sequence (P61823 27-150)": "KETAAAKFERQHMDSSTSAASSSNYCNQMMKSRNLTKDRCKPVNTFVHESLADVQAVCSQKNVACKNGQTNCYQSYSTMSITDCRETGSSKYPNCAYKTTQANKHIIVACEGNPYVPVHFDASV", "test": "BLI; biotinylated RNase B captured on streptavidin biosensors; purified fimbriae at 50 and 100 nM as analyte; 0.2% BSA in HBS; global fit: conformational change model for FimH^wt, 1:1 Langmuir model for FimH^FocH; one representative experiment", "data": [{"substance": "purified type 1 fimbriae carrying wild-type FimH adhesin (FimH^wt) of E. coli K12 (from UniProt P08191 22-300) (complex)", "values": [{"measurement": "Kd", "result": 149, "unit": "nM"}, {"measurement": "kact (rate of transition from LAS to HAS, conformational change model)", "result": 0.0072, "unit": "s⁻¹"}, {"measurement": "kinact (rate of transition from HAS to LAS, conformational change model)", "result": 0.0128, "unit": "s⁻¹"}, {"measurement": "koff (LAS dissociation rate, conformational change model)", "result": 0.256, "unit": "s⁻¹"}, {"measurement": "kon (LAS association rate, conformational change model)", "result": "1.1e+06", "unit": "M⁻¹ s⁻¹"}]}]}
